Reference: patent publication US20030044888, “NOVEL STEROID-ACTIVATED NUCLEAR RECEPTORS AND USES THEREFOR” (published 2003)

Biological target: SXR/RXR heterodimer (Homo sapiens, UniProt O75469;P19793 O75469:1-434,P19793:1-462)
Test: EMSA; mutations prevented heterodimer binding; 10 mM Tris pH 8, 100 mM KCl, poly dI:dC, room temp
Conditions: tags: TNT (Promega); SXR initiator Leu changed to Met
Method: Electrophoretic mobility shift assays were performed using in vitro transcribed, translated proteins (TNT, Promega ). Proteins (1 μl each) were incubated for 20 minutes at room temperature with 100,000 cpm of Klenow-labeled probes in 10 mM Tris pH 8, 100 mM KCl, 6% glycerol, 0.05% NP-40, 1 mM dithiothreitol (DTT), 100 ng/μl poly dI:dC (Pharmacia, Piscataway, N.J.) and then electrophoresed through a 5% polyacrylamide gel in 0.5× TBE (45 mM Tris-base, 45 mM boric acid, 1 mM ethylenediaminetetraacetic acid (EDTA) at room temperature. For competition binding, protein plus unlabeled oligonucleotides at five or fifty fold molar excess were preincubated for ten minutes on ice, then labeled probes were added and incubated for 20 minutes at room temperature. Electrophoresis was as above. The IR series oligonucleotides tested had the following sequences: […]

Sequence of SXR/RXR heterodimer (O75469 whole entry, chain 1 of 2): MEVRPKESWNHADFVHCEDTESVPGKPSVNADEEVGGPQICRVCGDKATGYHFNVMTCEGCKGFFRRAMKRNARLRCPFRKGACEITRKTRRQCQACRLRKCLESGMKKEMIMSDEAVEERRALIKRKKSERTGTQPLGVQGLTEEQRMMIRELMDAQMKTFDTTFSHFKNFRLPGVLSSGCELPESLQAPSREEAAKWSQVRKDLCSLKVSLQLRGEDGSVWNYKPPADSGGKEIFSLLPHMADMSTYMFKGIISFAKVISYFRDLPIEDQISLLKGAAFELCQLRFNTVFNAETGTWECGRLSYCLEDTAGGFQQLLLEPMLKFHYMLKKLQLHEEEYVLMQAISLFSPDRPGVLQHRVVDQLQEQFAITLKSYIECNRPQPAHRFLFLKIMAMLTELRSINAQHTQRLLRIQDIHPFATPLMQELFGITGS
Sequence of SXR/RXR heterodimer (P19793 whole entry, chain 2 of 2): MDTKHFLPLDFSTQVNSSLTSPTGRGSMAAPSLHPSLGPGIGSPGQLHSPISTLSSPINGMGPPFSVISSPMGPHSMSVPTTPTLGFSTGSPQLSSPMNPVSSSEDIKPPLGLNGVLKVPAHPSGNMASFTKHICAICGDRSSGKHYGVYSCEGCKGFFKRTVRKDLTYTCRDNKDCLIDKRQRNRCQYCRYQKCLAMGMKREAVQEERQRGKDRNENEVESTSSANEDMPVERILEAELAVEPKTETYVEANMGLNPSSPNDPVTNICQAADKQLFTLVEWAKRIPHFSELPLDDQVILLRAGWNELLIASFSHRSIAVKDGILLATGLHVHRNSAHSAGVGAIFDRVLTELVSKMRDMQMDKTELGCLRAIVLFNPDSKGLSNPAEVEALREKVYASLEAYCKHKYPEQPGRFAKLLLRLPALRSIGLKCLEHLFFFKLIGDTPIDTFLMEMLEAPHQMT

B1: IR-M (dsDNA)
DNA 1: AGCTTACGTCATGACGTA
DNA 2: TACGTCATGACGTAAGCT
  binding result: no binding
